Our source for the detectable gp120 concentration in human blood, detection limit of gp120 and gp120 concentration detected values is patent US20160237122A1.

Assay [1] addresses HIV-1 gp120 protein (Fitzgerald Industries International Inc, USA) (HIV-1). In words: dot blot: value derived from 1 pg in 1 mL of 10-fold diluted human serum.
For assay [2] the target is unchanged. Kind of assay: dot blot: 5 ng fusion F23 peptide on nitrocellulose, gp120 in 10-fold diluted human serum, HRP-conjugated gp120 antibody, chemiluminescence.
Assay [3] shares this target. In words: fusion peptide on Ni-NTA magnetic agarose beads, detected with FITC-labeled gp120 antibody, fluorescence microscopy.

The molecule MIHHHHHHEMISLIAALAVIEGRCNLHFCQLRCKSLGLLGKCAGSFCACV (designed binder) [fusion F23 peptide (His6-tag, 15 amino acid linker derived from E. coli DHFR, F23)] had a detectable gp120 concentration in human blood in assay [1] of 10 pg/mL. In addition, the detection limit of gp120 in assay [2] was 1 pg/mL. This molecule also registered a gp120 concentration detected in assay [3] of 10 ng/µL.
